# Patent US20220403048A1 (CANCER RESEARCH TECHNOLOGY, published 2022)
# Read-outs that look alike come from different tables or passages of the source.
# T1: biotinylated recombinant human trimeric ARG1 enzyme (Avi-huARG1-His10) (human, UniProt P05089 1-322, biotinylated in HTRF and streptavidin BLI assays)
# T1 construct: also called Human ARG1; recombinant ARG1
# T1 sequence: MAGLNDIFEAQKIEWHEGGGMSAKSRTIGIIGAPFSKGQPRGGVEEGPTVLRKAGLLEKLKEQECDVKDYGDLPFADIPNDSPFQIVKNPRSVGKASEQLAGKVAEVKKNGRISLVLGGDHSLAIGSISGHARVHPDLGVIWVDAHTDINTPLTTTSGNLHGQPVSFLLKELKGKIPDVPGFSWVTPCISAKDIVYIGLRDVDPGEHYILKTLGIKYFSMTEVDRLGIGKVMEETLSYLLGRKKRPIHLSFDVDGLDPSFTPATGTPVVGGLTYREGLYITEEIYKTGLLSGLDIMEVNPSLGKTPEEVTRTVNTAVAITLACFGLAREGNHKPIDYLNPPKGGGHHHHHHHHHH
# T2: biotinylated recombinant cynomolgus monkey trimeric ARG2 enzyme (Avi-cynoARG2-His10) (cynomolgus monkey, UniProt P78540 23-354 (human entry), biotinylated)
# T2 construct: also called cynomolgus ARG2
# T2 chain: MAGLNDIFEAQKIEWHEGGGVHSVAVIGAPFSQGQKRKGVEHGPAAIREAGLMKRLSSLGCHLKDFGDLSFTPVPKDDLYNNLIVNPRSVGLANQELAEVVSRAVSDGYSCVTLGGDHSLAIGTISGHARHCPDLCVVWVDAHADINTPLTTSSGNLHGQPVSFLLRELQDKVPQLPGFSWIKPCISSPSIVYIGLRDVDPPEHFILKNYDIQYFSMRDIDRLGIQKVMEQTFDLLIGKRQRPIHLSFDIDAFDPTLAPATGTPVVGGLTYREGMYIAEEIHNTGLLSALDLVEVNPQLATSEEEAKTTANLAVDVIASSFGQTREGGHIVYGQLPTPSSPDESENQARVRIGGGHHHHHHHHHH
# T3: biotinylated recombinant human trimeric ARG2 enzyme (Avi-huARG2-His10) (human, UniProt P78540 23-354, biotinylated)
# T3 construct: also called avi-Arg2-His10; bio-ARG2
# T3 chain: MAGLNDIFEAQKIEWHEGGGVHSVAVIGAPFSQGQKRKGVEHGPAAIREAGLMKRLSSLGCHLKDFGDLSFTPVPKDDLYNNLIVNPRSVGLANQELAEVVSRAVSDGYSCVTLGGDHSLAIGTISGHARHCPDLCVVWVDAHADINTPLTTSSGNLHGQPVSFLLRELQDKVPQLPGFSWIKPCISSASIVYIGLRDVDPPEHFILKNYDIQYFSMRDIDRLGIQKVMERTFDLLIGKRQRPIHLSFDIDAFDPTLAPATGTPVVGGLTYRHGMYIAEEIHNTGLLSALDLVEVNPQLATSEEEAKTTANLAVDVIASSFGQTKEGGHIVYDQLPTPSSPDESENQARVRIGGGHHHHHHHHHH
# Legend:
# [1] = biological target: T1, biotinylated recombinant human trimeric …; assay: BLI (OctetRED), His-tagged ligand on anti-His surface
# Description: The binding of affinity-matured antibodies to human ARG1 was also tested on the OctetRED system using a screening assay which stably captures […] as the ligand on an anti-His surface. The Fabs were typically tested in an analyte range of 1.8 to 120 nM, with an association time of 5 minutes and a dissociation time of 10 minutes. Sensors were regenerated using 10 mM glycine pH 1.5 after each cycle.
# [2] = biological target: T2, biotinylated recombinant cynomolgus …; assay: BLI (OctetRED), biotinylated cyno ARG2 on streptavidin, Fab as analyte
# Description: (§1) An Octet Kinetics Buffer (PBS containing 0.01% BSA and 0.002% Tween20) is typically used as the diluent buffer for the analyte samples and as the flow buffer during the dissociation phase. The experimental data is recorded over time as shift in interference pattern (nm) over time, which is directly proportional to the optical thickness at the biosensor tip, which in turn is an approximate measure of the mass of analyte bound. The proprietary Octet Data Analysis software package can then be used to process data and fit binding models to the data sets. Returned association (kₐ, M⁻¹ s⁻¹) and dissociation (kd, s⁻¹) rate constants allow calculation of dissociation (KD, M) affinity constants.
# (§2) Typically, an analyte titration range of 1.8 to 120 nM was used.
# [3] = biological target: T3, biotinylated recombinant human trimeric …; assay: BLI (OctetRED), biotinylated ARG2 on streptavidin, Fab as analyte
# Description: as §1, §2
# [4] = biological target: T3, biotinylated recombinant human trimeric …; assay: BLI (OctetRED) extended assay, bio-ARG2 on streptavidin, Fab as analyte, 1:1 fit
# Description: The affinities of the second-generation antibodies to human ARG2 were measured on the OctetRED system. A screening assay which stably captures His-tagged ARG2 as the ligand on an anti-His surface was utilised to screen the second-generation candidates as Fabs at an analyte range of 1.8 to 120 nM, with an association time of 5 minutes and a dissociation time of 10 minutes. Sensors were regenerated using 10 mM glycine pH 1.5 after each cycle. Based on this assay, six candidates with estimated affinities in the sub-nanomolar range were identified, and they were further profiled using an extended assay which is more suitable for antibodies of high affinities. In the extended assay, the association and dissociation times were extended to 10 and 40 minutes respectively, using a lower Fab analyte titration range of 0.47 to 30 nM, on a streptavidin surface which captures bio-ARG2 as the ligand. The sensorgrams were reference subtracted and fitted to the 1:1 binding model to estimate their binding affinities using the Octet analysis software.
# [5] = biological target: T1, biotinylated recombinant human trimeric …; assay: BLI (OctetRED), His-tagged ligand on anti-His surface; remark: listed apart in the source
Binder,binding result [1],Kd [2],koff [2],kon [2],Kd [3],koff [3],kon [3],Kd [4],koff [4],kon [4],binding result [5]
"C0021061 Fab (Fab, V domains shown, Human Fab) VH: EVQLLESGGGLVQPGGSLRLSCAASGFTFSSYAMSWVRQAPGKGLEWVSAKPTDAGSTYYADSVKGRFTISRDNSKNTLYLQMNSLRAEDTAVYYCARLRADLGLYMDLWGRGTLVTVSS VL: QSVLTQPPSVSAAPGQKVTISCSGSSSNIGNHYVSWYQQLPGTAPKLLIYNTVYPKSGIPDRFSGSKSGTSATLGITGLQTGDEADYYCGTWDSSLSALVFGGGTKLTVL",no binding (tested: 1.8 to 120 nM Fab),0.953 nM,0.000296 s⁻¹,310000 M⁻¹ s⁻¹,1.3 nM,0.000351 s⁻¹,271000 M⁻¹ s⁻¹,–,–,–,–
"C0021092 Fab (Fab, V domains shown, Human Fab) VH: EVQLLESGGGLVQPGGSLRLSCAASGFTFSRYAMSWVRQAPGKGLEWVSAHTHSPGSTYYADSVKGRFTISRDNSKNTLYLQMNSLRAEDTAVYYCARLRADLGLYMDLWGRGTLVTVSS VL: QSVLTQPPSVSAAPGQKVTISCSGSSSNIGNHYVSWYQQLPGTAPKLLIYNSVARPSGIPDRFSGSKSGTSATLGITGLQTGDEADYYCGTWDSSLSALVFGGGTKLTVL",no binding (tested: 1.8 to 120 nM Fab),2.05 nM,0.000726 s⁻¹,354000 M⁻¹ s⁻¹,2.69 nM,0.000755 s⁻¹,280000 M⁻¹ s⁻¹,–,–,–,–
"C0021128 Fab (Fab, V domains shown, Human Fab) VH: EVQLLESGGGLVQPGGSLRLSCAASGFTFQYEVAAWVRQAPGKGLEWVSAISGPIPKGYYADSVKGRFTISRDNSKNTLYLQMNSLRAEDTAVYYCARLRADLGLYMDLWGRGTLVTVSS VL: QSVLTQPPSVSAAPGQKVTISCSGSSSNIGNHYVSWYQQLPGTAPKLLIYDNAIESSGIPDRFSGSKSGTSATLGITGLQTGDGADYYCGTWDSNLSALVFGGGTKLTVL",no binding (tested: 1.8 to 120 nM Fab),1.77 nM,0.000771 s⁻¹,437000 M⁻¹ s⁻¹,2.53 nM,0.000674 s⁻¹,266000 M⁻¹ s⁻¹,–,–,–,–
"C0021139 Fab (Fab, V domains shown, Human Fab; also called LO C0021139 Fab) VH: EVQLLESGGGLVQPGGSLRLSCAASGFTFQYDYQVWVRQAPGKGLEWVSAISGSGGSTYYADSVKGRFTISRDNSKNTLYLQMNSLRAEDTAVYYCARLRADLGLYMDLWGRGTLVTVSS VL: QSVLTQPPSVSAAPGQKVTISCSGSSSNIGNHYVSWYQQLPGTAPKLLIYDNSERTSGIPDRFSGSKSGTSATLGITGLQTGDEADYYCGTWDELTSNLVFGGGTKLTVL",no binding (tested: 1.8 to 120 nM Fab),2.63 nM,0.000724 s⁻¹,275000 M⁻¹ s⁻¹,4.41 nM,0.000871 s⁻¹,198000 M⁻¹ s⁻¹,–,–,–,–
"C0021133 Fab (Fab, V domains shown, Human Fab) VH: EVQLLESGGGLVQPGGSLRLSCAASGFTFRYDHHVWVRQAPGKGLEWVSAISGSGGSTYYADSVKGRFTISRDNSKNTLYLQMNSLRAEDTAVYYCARLRADLGLYMDLWGRGTLVTVSS VL: QSVLTQPPSVSAAPGQKVTVSCSGSSSNIGNHYVSWYQQLPGTAPKLLIYDTTVLSSGIPDRFSGSKSGTSATLGITGLQTGDEADYYCGTWDELTSNLVFGGGTKLTVL",no binding (tested: 1.8 to 120 nM Fab),1.67 nM,0.000549 s⁻¹,328000 M⁻¹ s⁻¹,2.05 nM,0.000449 s⁻¹,219000 M⁻¹ s⁻¹,–,–,–,–
"C0021144 Fab (Fab, V domains shown, Human Fab) VH: EVQLLESGGGLVQPGGSLRLSCAASGFTFRYDYHVWVRQAPGKGLEWVSAISGSGGSTYYADSVKGRFTISRDNSKNTLYLQMNSLRAEDTAVYYCARLRADLGLYMDLWGRGTLVTVSS VL: QSVLTQPPSVSAAPGQKVTVSCSGSSSNIGNHHVSWYQQLPGTAPKLLIYDTTVLSSGVPDRFSGSKSGTSATLGITGLQTGDEADYYCGTWDELTSNLVFGGGTKLTVL",–,–,–,–,–,–,–,0.338 nM,6.59e-05 s⁻¹,195000 M⁻¹ s⁻¹,no binding (tested: up to 120 nM Fab)
"C0021155 Fab (Fab, V domains shown, Human Fab) VH: EVQLLESGGGLVQPGGSLRLSCEASGFTFRYDYHVWVRQAPGKGLEWVSAISGSGGSTYYADPVKGRFTISRDNSKNTLYLQMNSLRAEDTAVYYCARLRADLGLYMDLWGRGTLVTVSS VL: RSVLTQPPSVSAAPGQKVTISCSGSSSNIGNHYVSWYQQLPGTAPKLLIYDTTVLSSGIPDRFSGSKSGTSATLGITGLQTGDEADYYCGTWDELTSNLVFGGGTRLTVL",–,–,–,–,–,–,–,0.358 nM,5.67e-05 s⁻¹,159000 M⁻¹ s⁻¹,no binding (tested: up to 120 nM Fab)
"C0021022 Fab (Fab, V domains shown, Human Fab) VH: EVQLLESGGGLVQPGGSLRLSCAASGFTFSSYAMSWVRQAPGKGPEWVSAISGFSPYYADSVKGRFTISRDNSKNTLYLQMNSLRAEDTAVYYCARLRADLGLYMDLWGRGTLVTVSS VL: QSVLTQPPSVSAAPGQKVTISCSGSSSNIGNHYVSWYQQLPGTAPKLLIYDNSERPSGIPDRFSGSKSGTSATLGITGLQTGDEADYYCGTWDSSLSALVFGGGTKLTVL",no binding (tested: 1.8 to 120 nM Fab),1.66 nM,0.00117 s⁻¹,706000 M⁻¹ s⁻¹,2.73 nM,0.00112 s⁻¹,412000 M⁻¹ s⁻¹,–,–,–,–
"C0021065 Fab (Fab, V domains shown, Human Fab) VH: EVQLLESGGGLVQPGGSLRLSCAASGFTFSSYAMSWVRQAPGKGPEWVSAISGFSPYYADSVKGRFTISRDNSRNTLYLQMNSLRAEDTAVYYCARLRADLGLYMDLWGRGTLVTVSS VL: QSVLTQPPSVSAAPGQKVTISCSGSSSNIGNHYVSWYQQLPGTAPKLLIYDTDHMASGIPDRFSGSKSGTSATLGITGLQTGDEADYYCGTWDSSLSALVFGGGTKLTVL",no binding (tested: 1.8 to 120 nM Fab),1.27 nM,0.000782 s⁻¹,617000 M⁻¹ s⁻¹,1.62 nM,0.000665 s⁻¹,409000 M⁻¹ s⁻¹,–,–,–,–
